Measured values as given in article PMC3536711, “Directed Evolution of a Model Primordial Enzyme Provides Insights into the Development of the Genetic Code” (PLoS Genetics, 2013).

Molecular target: 9-CM, simplified chorismate mutase composed of only nine different amino acids
Assay: SEC; size-exclusion column after Ni-NTA affinity purification; dimer peak (major peak around 170 mL) isolated for each sample; small fraction of aggregates in the mutant proteins

stoichiometry N: 2
Substance: 9-CM, simplified chorismate mutase composed of only nine different amino acids (enzyme)
